This is an account of results in article PMC9889267.

The assay addresses MLucV (pTriEx-mTFP1(cp175)-Luciferase-Venus(cp173)), purified reporter protein (firefly) [luciferase: P08659]. Nature of the assay: SEC-RALS; UMLucV (urea pre-aggregated MLucV), 1 µM, 300 µl on Superdex-200 increase; similar size profile up to 2,000 nM; oligomer of misfolded protomers.

The substance “MLucV (pTriEx-mTFP1(cp175)-Luciferase-Venus(cp173)), purified reporter protein (from UniProt P08659 1-544)” displayed a stoichiometry N of 12.

As a reminder, the stoichiometry N is a count of units in the complex or per binding partner.
